In article PMC10002499:

Legend:
[1] = target: annexin A2 (amino terminus) construct (rat); test: SPR; 100 uM Ca2+; details: domain or fragment
[2] = target: annexin A2 (amino terminus) construct (rat); test: SPR; without Ca2+; details: domain or fragment
[3] = target: dysferlin C2F domain (Rattus norvegicus); test: SPR; Biacore 3000, 25 °C; His6 fusion ligand amine-coupled on a CM5 chip (dysferlin C2 domain as ligand, partner as analyte, per Figure 2 'ligand:analyte'); analyte typically 0–320 nM, including reversal of ligand and analyte; 1:1 Langmuir model; Ca2+ level of the KD values of Table 1 not given
Sequence of dysferlin C2F domain (Rattus norvegicus) (Q9ESD7 1805-1953): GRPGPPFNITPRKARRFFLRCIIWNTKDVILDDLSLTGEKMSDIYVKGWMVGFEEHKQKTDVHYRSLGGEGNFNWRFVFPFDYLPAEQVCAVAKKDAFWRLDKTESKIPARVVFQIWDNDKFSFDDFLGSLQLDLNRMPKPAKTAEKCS

[4] = target: dysferlin canonical C2A domain, construct 3 (aa 19-134) (Rattus norvegicus); test: as above
Sequence of dysferlin canonical C2A domain, construct 3 (aa 19-134) (Rattus norvegicus) (Q9ESD7 other isoform, or with tags, fused parts or gaps): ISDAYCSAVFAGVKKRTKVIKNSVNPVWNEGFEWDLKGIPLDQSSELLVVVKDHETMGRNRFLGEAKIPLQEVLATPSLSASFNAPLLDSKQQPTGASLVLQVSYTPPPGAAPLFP

[5] = target: annexin A2 (amino terminus) construct (rat); test: SPR; 0 added Ca2+; details: domain or fragment

Sequence of annexin A2 (amino terminus) construct (rat) (Q07936 2-339): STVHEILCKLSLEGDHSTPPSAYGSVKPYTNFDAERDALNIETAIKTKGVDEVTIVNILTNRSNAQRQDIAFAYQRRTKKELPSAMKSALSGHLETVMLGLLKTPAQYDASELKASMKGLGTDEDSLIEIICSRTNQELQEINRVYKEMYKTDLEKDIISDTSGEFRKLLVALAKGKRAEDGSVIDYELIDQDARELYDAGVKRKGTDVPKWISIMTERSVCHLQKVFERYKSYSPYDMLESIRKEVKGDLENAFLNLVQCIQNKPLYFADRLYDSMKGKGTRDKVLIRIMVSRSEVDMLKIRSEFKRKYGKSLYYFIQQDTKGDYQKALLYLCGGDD
Sequence of syntaxin-4 construct (domain or fragment) (Q08850 whole entry, the tested form may be a part): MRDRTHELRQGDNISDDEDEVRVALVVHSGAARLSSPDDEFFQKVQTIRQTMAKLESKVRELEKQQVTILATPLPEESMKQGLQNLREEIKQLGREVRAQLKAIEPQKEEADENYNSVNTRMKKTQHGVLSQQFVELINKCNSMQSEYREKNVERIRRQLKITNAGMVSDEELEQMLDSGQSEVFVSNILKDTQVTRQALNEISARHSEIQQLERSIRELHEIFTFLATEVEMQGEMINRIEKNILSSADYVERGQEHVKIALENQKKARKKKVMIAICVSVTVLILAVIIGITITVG
Sequence of calpain-3 construct (domain or fragment) (P16259 whole entry, the tested form may be a part): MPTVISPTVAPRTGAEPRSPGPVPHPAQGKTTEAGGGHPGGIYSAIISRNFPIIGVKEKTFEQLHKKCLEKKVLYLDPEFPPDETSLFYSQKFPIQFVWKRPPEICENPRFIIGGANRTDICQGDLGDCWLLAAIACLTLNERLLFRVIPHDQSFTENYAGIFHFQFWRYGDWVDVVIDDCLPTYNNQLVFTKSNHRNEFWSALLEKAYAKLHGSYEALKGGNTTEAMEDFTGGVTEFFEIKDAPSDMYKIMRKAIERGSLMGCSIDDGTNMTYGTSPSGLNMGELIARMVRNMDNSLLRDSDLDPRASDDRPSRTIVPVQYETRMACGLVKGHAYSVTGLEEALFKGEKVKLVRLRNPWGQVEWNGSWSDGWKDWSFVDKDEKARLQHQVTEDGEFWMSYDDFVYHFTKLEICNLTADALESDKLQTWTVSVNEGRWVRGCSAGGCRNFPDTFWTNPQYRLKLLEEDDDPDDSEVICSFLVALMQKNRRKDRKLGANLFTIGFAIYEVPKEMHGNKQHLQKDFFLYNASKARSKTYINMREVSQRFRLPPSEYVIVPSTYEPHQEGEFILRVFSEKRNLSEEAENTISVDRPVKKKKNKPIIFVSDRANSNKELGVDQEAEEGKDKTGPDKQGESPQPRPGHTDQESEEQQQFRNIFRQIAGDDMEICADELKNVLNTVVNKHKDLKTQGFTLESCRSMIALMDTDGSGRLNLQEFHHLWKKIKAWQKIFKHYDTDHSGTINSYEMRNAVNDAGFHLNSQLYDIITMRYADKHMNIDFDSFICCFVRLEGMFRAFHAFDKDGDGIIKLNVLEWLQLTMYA
Sequence of annexin A1 construct (domain or fragment) (P07150 2-346): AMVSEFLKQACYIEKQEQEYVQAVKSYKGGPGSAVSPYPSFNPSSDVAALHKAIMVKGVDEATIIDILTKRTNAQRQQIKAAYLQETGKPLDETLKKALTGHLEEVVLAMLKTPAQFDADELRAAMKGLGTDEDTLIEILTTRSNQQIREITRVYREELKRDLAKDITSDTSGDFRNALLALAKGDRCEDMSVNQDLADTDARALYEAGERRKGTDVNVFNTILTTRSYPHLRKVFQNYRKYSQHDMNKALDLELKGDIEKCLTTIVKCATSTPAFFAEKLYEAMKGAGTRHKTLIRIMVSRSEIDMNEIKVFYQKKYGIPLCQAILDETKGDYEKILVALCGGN
Sequence of caveolin-3 construct (domain or fragment) (P51638 whole entry, the tested form may be a part): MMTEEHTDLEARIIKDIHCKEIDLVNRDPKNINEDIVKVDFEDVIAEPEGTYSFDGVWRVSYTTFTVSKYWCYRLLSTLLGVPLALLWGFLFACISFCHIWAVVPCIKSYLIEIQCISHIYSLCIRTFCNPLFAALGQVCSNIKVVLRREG
Sequence of mitsugumin-53 construct (domain or fragment) (A0JPQ4 whole entry, the tested form may be a part): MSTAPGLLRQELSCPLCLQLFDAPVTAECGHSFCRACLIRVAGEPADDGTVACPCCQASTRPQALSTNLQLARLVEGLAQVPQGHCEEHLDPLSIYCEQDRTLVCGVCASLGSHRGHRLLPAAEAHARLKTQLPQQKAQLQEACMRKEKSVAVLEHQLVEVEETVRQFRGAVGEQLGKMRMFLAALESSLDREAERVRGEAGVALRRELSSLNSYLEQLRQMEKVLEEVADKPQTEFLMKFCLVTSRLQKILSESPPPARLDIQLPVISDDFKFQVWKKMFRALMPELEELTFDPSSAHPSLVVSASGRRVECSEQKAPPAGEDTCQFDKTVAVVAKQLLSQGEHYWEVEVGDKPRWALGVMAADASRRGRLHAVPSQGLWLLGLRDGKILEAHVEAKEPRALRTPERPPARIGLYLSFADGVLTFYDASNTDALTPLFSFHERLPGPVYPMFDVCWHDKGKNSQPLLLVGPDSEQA

Row | Substance | Kd [3] | Kd [4] | other results
1 | dysferlin canonical C2A domain, construct 1 (aa 1-152 plus 24 aa) | – | – | Kd [1]: 23.6 nM; Kd [2]: 101 nM
2 | affixin (beta-parvin) construct (domain or fragment) | 400 nM | 41000 nM | –
3 | dysferlin canonical C2A domain, construct 3 (aa 19-134) | – | – | Kd [5]: 190 nM
4 | calpain-3 construct (domain or fragment) | 2.2 nM | 1200 nM | –
5 | syntaxin-4 construct (domain or fragment) | 130 nM | 4400 nM | –

Now from value to substance, other results behind:

Row | Kd [3] | Kd [4] | Substance | other results
6 | – | 380 nM | AHNAK1 construct, the final 500 amino acids (domain or fragment) | –
7 | – | 470 nM | mitsugumin-53 construct (domain or fragment) | –
8 | 110 nM | 33 nM | caveolin-3 construct (domain or fragment) | –
9 | 330 nM | 25 nM | annexin A1 construct (domain or fragment) | –
